Results on five molecules are retold here after PMC7182499 (Journal of inherited metabolic disease, 2019).

The target in series [1] is T1, ALDH7A1 (aldehyde dehydrogenase 7A1; antiquitin) (Homo sapiens, UniProt P49419, E427Q).
T1 sequence (P49419 29-539 E427Q): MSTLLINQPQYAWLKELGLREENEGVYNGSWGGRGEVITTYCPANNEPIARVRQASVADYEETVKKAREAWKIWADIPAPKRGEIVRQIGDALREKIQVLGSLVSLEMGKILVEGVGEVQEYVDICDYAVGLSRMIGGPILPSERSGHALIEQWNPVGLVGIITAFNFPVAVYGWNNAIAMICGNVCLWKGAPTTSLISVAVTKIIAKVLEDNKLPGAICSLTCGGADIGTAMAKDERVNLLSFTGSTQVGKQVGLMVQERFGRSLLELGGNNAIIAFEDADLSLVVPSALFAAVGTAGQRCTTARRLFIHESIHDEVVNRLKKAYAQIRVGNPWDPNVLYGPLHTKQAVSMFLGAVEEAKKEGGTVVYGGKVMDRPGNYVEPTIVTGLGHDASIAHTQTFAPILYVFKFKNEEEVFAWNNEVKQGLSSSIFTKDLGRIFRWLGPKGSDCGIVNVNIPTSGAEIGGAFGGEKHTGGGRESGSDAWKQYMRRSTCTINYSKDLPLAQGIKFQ
Nature of the series: X-ray crystal structure, […] Å, co-crystallisation. The following applies: 15 mM NAD+; pH 6.2; ADP portion ordered, NMN disordered. The series is classed as binding.

Series [2] addresses T2, ALDH7A1 (aldehyde dehydrogenase 7A1; antiquitin) (Homo sapiens, UniProt P49419, E427G).
T2 sequence (P49419 29-539 E427G): T1 sequence (P49419 29-539 E427Q) with Q399G
Nature of the series: X-ray crystal structure, […] Å, co-crystallisation. Format: binding. The following applies: 5 mM NAD+; pH 6.5; NMN disordered.

The series “SAXS” deals with the molecule itself. Nature of the series: SAXS.
The series “crystal structure” concerns the molecule itself. Nature of the series: crystal structure.

Residue numbers refer to the chain shown, from its start. Names may count otherwise.

For the molecule `NC(=O)c1ccc[n+]([C@@H]2O[C@H](COP(=O)(O)OP(=O)(O)OC[C@H]3O[C@@H](n4cnc5c(N)ncnc54)[C@H](O)[C@@H]3O)[C@@H](O)[C@H]2O)c1` [NAD^+], in series [1], the “X-ray crystal structure, 2.06 Å, co-crystallisation” value is “The crystal structure of E427Q complexed with NAD^+ was determined in space group C2”. Also, in series [2], the “X-ray crystal structure, 2.15 Å, co-crystallisation” value was “the NMN of NAD^+ bound to E427G is disordered”.

B1: wild-type ALDH7A1 (aldehyde dehydrogenase 7A1) (enzyme, human, UniProt P49419 27-539, looked up)
chain: AFMSTLLINQPQYAWLKELGLREENEGVYNGSWGGRGEVITTYCPANNEPIARVRQASVADYEETVKKAREAWKIWADIPAPKRGEIVRQIGDALREKIQVLGSLVSLEMGKILVEGVGEVQEYVDICDYAVGLSRMIGGPILPSERSGHALIEQWNPVGLVGIITAFNFPVAVYGWNNAIAMICGNVCLWKGAPTTSLISVAVTKIIAKVLEDNKLPGAICSLTCGGADIGTAMAKDERVNLLSFTGSTQVGKQVGLMVQERFGRSLLELGGNNAIIAFEDADLSLVVPSALFAAVGTAGQRCTTARRLFIHESIHDEVVNRLKKAYAQIRVGNPWDPNVLYGPLHTKQAVSMFLGAVEEAKKEGGTVVYGGKVMDRPGNYVEPTIVTGLGHDASIAHTETFAPILYVFKFKNEEEVFAWNNEVKQGLSSSIFTKDLGRIFRWLGPKGSDCGIVNVNIPTSGAEIGGAFGGEKHTGGGRESGSDAWKQYMRRSTCTINYSKDLPLAQGIKFQ
On to B1, for which the “stoichiometry N” value in “SAXS” was 4.

B2: ALDH7A1 E427G (Glu427Gly) (enzyme, human, UniProt P49419 27-539, looked up)
chain: B1 chain with E401G
For B2, in “crystal structure”, the “stoichiometry N” value came out at 4.

B3: ALDH7A1 E427D (Glu427Asp) (enzyme, human, UniProt P49419 27-539, looked up)
chain: B1 chain with E401D
As to B3, in the series “crystal structure”, the “stoichiometry N” value is 4.

B4: ALDH7A1 E427Q (Glu427Gln) (enzyme, human, UniProt P49419 27-539, looked up)
chain: B1 chain with E401Q
Regarding B4, the “stoichiometry N” value in “crystal structure” is 4.
